Some results are limits rather than exact numbers.

The target of the assay is T1, MHC class II I-A^b molecules purified by affinity chromatography (;mouse, UniProt P14434 24-218; P14483 28-226, limits assumed).
T1 construct: Source of the purified I-A^b is not described beyond 'as described (22)'; also called MHC II (I-A^b); MHC II
T1 sequence (MHC II alpha, looked up): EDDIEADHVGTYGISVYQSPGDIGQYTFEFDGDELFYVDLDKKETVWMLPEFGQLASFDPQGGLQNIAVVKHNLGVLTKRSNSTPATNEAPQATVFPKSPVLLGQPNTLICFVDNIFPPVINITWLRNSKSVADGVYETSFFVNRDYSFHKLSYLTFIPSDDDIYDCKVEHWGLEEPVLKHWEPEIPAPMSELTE
T1 sequence (MHC II beta, looked up): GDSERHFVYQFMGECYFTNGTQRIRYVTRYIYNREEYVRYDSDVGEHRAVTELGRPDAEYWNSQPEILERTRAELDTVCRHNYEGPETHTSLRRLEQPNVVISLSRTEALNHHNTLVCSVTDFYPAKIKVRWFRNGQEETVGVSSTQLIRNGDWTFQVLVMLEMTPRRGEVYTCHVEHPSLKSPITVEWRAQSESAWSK
In words: competitive binding assay, purified I-A^b, radiolabeled competitor peptide. How it is done: We have now examined AQP4 peptide affinity for I-A^b biochemically. I-A^b molecules that were purified by affinity chromatography were tested in a competitive binding assay between a radiolabeled high-affinity competitor peptide and unlabeled peptides (22). Indeed, peptides containing the two pathogenic AQP4 T cell determinants bound I-A^b with higher affinity than the nonpathogenic AQP4 p24-35 T cell epitope or MOG p35-55 (FIG. 2D).

B1: AQP4 p202-218 (peptide)
peptide: LFAINYTGASMNPARSF
notes: Synthetic peptide (Genemed Synthesis); also called pathogenic AQP4 T cell determinant
Take B1: the “fold greater affinity than MOG p35-55” value is more than 10 fold.

These data come from US20250052751A1 (University of California, published 2025).
